Reference: patent US20170291958

Target: Flag-KRAS

B1: Flag-PIASγ (protein)
chain: MAAELVEAKNMVMSFRVSDLQMLLGFVGRSKSGLKHELVTRALQLVQFDCSPELFKKIKELYETRYAKKNSEPAPQPHRPLDPLTMHSTYDRAGAVPRTPLAGPNIDYPVLYGKYLNGLGRLPAKTLKPEVRLVKLPFFNMLDELLKPTELVPQNNEKLQESPCIFALTPRQVELIRNSRELQPGVKAVQVVLRICYSDTSCPQEDQYPPNIAVKVNHSYCSVPGYYPSNKPGVEPKRPCRPINLTHLMYLSSATNRITVTWGNYGKSYSVALYLVRQLTSSELLQRLKTIGVKHPELCKALVKEKLRLDPDSEIATTGVRVSLICPLVKMRLSVPCRAETCAHLQCFDAVFYLQMNEKKPTWMCPVCDKPAPYDQLIIDGLLSKILSECEDADEIEYLVDGSWCPIRAEKERSCSPQGAILVLGPSDANGLLPAPSVNGSGALGSTGGGGPVGSMENGKPGADVVDLTLDSSSSSEDEEEEEEEEEDEDEEGPRPKRRCPFQKGLVPAC
For B1, which “KRAS sumoylation (HA-SUMO3 blot of Flag immunoprecipitates)” value is on record?
Its value is “Expression of PIASγ enhanced KRAS sumoylation, which was further stimulated by expression of UBC9 (FIG. 3D)”.
